The results in this text go back to the supplement of paper PMC11316812.

± gives the standard deviation of the averaged measurements.

For one data set, the system named is MCF7. Briefly: percentage of EdU-negative (G0-arrested) nuclei per well, 72 h; higher = more G0 arrest. The following applies: reference: sequence is the full UniProt precursor, the tested protein was the secreted form or ectodomain.
A further data set concerns hTERT-HMEC. Described as above. The following applies: reference: sequence is the full UniProt precursor, the tested protein was the secreted form or ectodomain.
[1] abbreviates: protein concentration 0.03125 µM.
[2] abbreviates: protein concentration 0.3125 µM.
[3] abbreviates: protein concentration 0.0225 µM.
The mark [4] stands for this setting: protein concentration 0.0211429 µM.
Setting [5] is: protein concentration 0.211429 µM.
The mark [6] stands for this setting: protein concentration 0.01025 µM.
Where [7] appears, read: protein concentration 0.1025 µM.
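Also: secreted proteins added to cultured cells, EdU pulse at the end, nuclei found by Hoechst imaging, EdU status from nuclear versus surrounding ring intensity ratio, PBS as neutral control.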

For “MMCGAPSATQPATAETQHIADQVRSQLEEKENKKFPVFKAVSFKSQVVAGTNYFIKVHVGDEDFVHLRVFQSLPHENKPLTLSNYQTNKAKHDELTYF”, the “percentage of EdU-negative” value in the data set with MCF7 (setting [1]) was 26 ± 3.3%; with MCF7 (setting [2]), 26.5 ± 2.9%; in the data set with hTERT-HMEC (setting [1]), 5.09 ± 0.59%; with hTERT-HMEC (setting [2]), 4.78 ± 0.35%.
Regarding “MMCPLWRLLIFLGLLALPLAPHKQPWPGLAQAHRDNKSTLARIIAQGLIKHNAESRIQNIHFGDRLNASAQVAPGLVGWLISGRKHQQQQESSINITNIQLDCGGIQISFHKEWFSANISLEFDLELRPSFDNNIVKMCAHMSIVVEFWLEKDEFGRRDLVIGKCDAEPSSVHVAILTEAIPPKMNQFLYNLKENLQKVLPHMVESQVCPLIGEILGQLDVKLLKSLIEQEAAHEPTHHETSQPSACQAGESPS [Q9BQP9]”, the “percentage of EdU-negative” value with MCF7 (setting [3]) was found to be 25.2 ± 1.2%; with MCF7 (protein concentration 0.225 µM), 26.8 ± 0.78%; in the data set on hTERT-HMEC (setting [3]), 4.7 ± 0.18%; with hTERT-HMEC (protein concentration 0.225 µM) it was 12.1 ± 1.2%.
In the case of “MMDIYVCLKRPSWMVDNKRMRTASNFQWLLSTFILLYLMNQVNSQKKGAPHDLKCVTNNLQVWNCSWKAPSGTGRGTDYEVCIENRSRSCYQLEKTSIKIPALSHGDYEITINSLHDFGSSTSKFTLNEQNVSLIPDTPEILNLSADFSTSTLYLKWNDRGSVFPHRSNVIWEIKVLRKESMELVKLVTHNTTLNGKDTLHHWSWASDMPLECAIHFVEIRCYIDNLHFSGLEEWSDWSPVKNISWIPDSQTKVFPQDKVILVGSDITFCCVSQEKVLSALIGHTNCPLIHLDGENVAIKIRNISVSASSGTNVVFTTEDNIFGTVIFAGYPPDTPQQLNCETHDLKEIICSWNPGRVTALVGPRATSYTLVESFSGKYVRLKRAEAPTNESYQLLFQMLPNQEIYNFTLNAHNPLGRSQSTILVNITEKVYPHTPTSFKVKDINSTAVKLSWHLPGNFAKINFLCEIEIKKSNSVQEQRNVTIKGVENSSYLVALDKLNPYTLYTFRIRCSTETFWKWSKWSNKKQHLTTEASPSKGPDTWREWSSDGKNLIIYWKPLPINEANGKILSYNVSCSSDEETQSLSEIPDPQHKAEIRLDKNDYIISVVAKNSVGSSPPSKIASMEIPNDDLKIEQVVGMGKGILLTWHYDPNMTCDYVIKWCNSSRSEPCLMDWRKVPSNSTETVIESDEFRPGIRYNFFLYGCRNQGYQLLRSMIGYIEELAPIVAPNFTVEDTSADSILVKWEDIPVEELRGFLRGYLFYFGKGERDTSKMRVLESGRSDIKVKNITDISQKTLRIADLQGKTSYHLVLRAYTDGGVGPEKSMYVVTKENSVGLIIAILIPVAVAVIVGVVTSILCYRKREWIKETFYPDIPNPENCKALQFQKSVCEGSSALKTLEMNPCTPNNVEVLETRSAFPKIEDTEIISPVAERPEDRSDAEPENHVVVSYCPPIIEEEIPNPAADEAGGTAQVIYIDVQSMYQPQAKPEEEQENDPVGGAGYKPQMHLPINSTVEDIAAEEDLDKTAGYRPQANVNTWNLVSPDSPRSIDSNSEIVSFGSPCSINSRQFLIPPKDEDSPKSNGGGWSFTNFFQNKPND”, the “percentage of EdU-negative” value with MCF7 (setting [4]) worked out at 24.2 ± 2%; in the data set with MCF7 (setting [5]), 26.8 ± 0.8%; with hTERT-HMEC (setting [4]), 4.99 ± 0.47%; with hTERT-HMEC (setting [5]) it was 7.62 ± 0.7%.
As for “MMGLFPRTTGALAIFVVVILVHGELRIETKGQYDEEEMTMQQAKRRQKREWVKFAKPCREGEDNSKRNPIAKITSDYQATQKITYRISGVGIDQPPFGIFVVDKNTGDINITAIVDREETPSFLITCRALNAQGLDVEKPLILTVKILDINDNPPVFSQQIFMGEIEENSASNSLVMILNATDADEPNHLNSKIAFKIVSQEPAGTPMFLLSRNTGEVRTLTNSLDREQASSYRLVVSGADKDGEGLSTQCECNIKVKDVNDNFPMFRDSQYSARIEENILSSELLRFQVTDLDEEYTDNWLAVYFFTSGNEGNWFEIQTDPRTNEGILKVVKALDYEQLQSVKLSIAVKNKAEFHQSVISRYRVQSTPVTIQVINVREGIAFRPASKTFTVQKGISSKKLVDYILGTYQAIDEDTNKAASNVKYVMGRNDGGYLMIDSKTAEIKFVKNMNRDSTFIVNKTITAEVLAIDEYTGKTSTGTVYVRVPDFNDNCPTAVLEKDAVCSSSPSVVVSARTLNNRYTGPYTFALEDQPVKLPAVWSITTLNATSALLRAQEQIPPGVYHISLVLTDSQNNRCEMPRSLTLEVCQCDNRGICGTSYPTTSPGTRYGRPHSGRLGPAAIGLLLLGLLLLLLAPLLLLTCDCGAGSTGGVTGGFIPVPDGSEGTIHQWGIEGAHPEDKEITNICVPPVTANGADFMESSEVCTNTYARGTAVEGTSGMEMTTKLGAATESGGAAGFATGTVSGAASGFGAATGVGICSSGQSGTMRTRHSTGGTNKDYADGAISMNFLDSYFSQKAFACAEEDDGQEANDCLLIYDNEGADATGSPVGSVGCCSFIADDLDDSFLDSLGPKFKKLAEISLGVDGEGKEVQPPSKDSGYGIESCGHPIEVQQTGFVKCQTLSGSQGASALSTSGSVQPAVSIPDPLQHGNYLVTETYSASGSLVQPSTAGFDPLLTQNVIVTERVICPISSVPGNLAGPTQLRGSHTMLCTEDPCSRLI”, the “percentage of EdU-negative” value in the data set with MCF7 (setting [3]) came to 27.7 ± 0.58%; in the data set on MCF7 (protein concentration 0.225 µM) it was 33.34 ± 0.16%; with hTERT-HMEC (setting [3]), 4.88 ± 0.17%; with hTERT-HMEC (protein concentration 0.225 µM) it was 13.7 ± 2.7%.
Turning to “MMLHSALGLCLLLVTVSSNLAIAIKKEKRPPQTLSRGWGDDITWVQTYEEGLFYAQKSKKPLMVIHHLEDCQYSQALKKVFAQNEEIQEMAQNKFIMLNLMHETTDKNLSPDGQYVPRIMFVDPSLTVRADIAGRYSNRLYTYEPRDLPLLIENMKKALRLIQSEL [Q8TD06]”, the “percentage of EdU-negative” value stood at 26.1 ± 2.8% in the data set on MCF7 (setting [3]), 24.6 ± 0.5% in the data set on MCF7 (protein concentration 0.225 µM), 5.91 ± 1.9% with hTERT-HMEC (setting [3]) and 6.43 ± 1.1% in the data set on hTERT-HMEC (protein concentration 0.225 µM).
“MMLRLLSSLLLVAVASGYGPPSSHSSSRVVHGEDAVPYSWPWQVSLQYEKSGSFYHTCGGSLIAPDWVVTAGHCISRDLTYQVVLGEYNLAVKEGPEQVIPINSEELFVHPLWNRSCVACGNDIALIKLSRSAQLGDAVQLASLPPAGDILPNKTPCYITGWGRLYTNGPLPDKLQQARLPVVDYKHCSRWNWWGSTVKKTMVCAGGYIRSGCNGDSGGPLNCPTEDGGWQVHGVTSFVSAFGCNFIWKPTVFTRVSAFIDWIEETIASH”: the “percentage of EdU-negative” value was 25.2 ± 3% in the data set on MCF7 (setting [6]), 24.7 ± 1.6% in the data set on MCF7 (setting [7]), 5.71 ± 1.5% in the data set on hTERT-HMEC (setting [6]) and 5.66 ± 0.78% in the data set on hTERT-HMEC (setting [7]).
